According to publication PMC4183798:

Molecular target: Fc-Nxph1mat-N146D/N156D/N162D (rat) (UniProt Q63366)
Test: SPR; reversed experiment: purified Fc-Nxph1·LNS2-HA complex (formed by co-expression) bound covalently and randomly to a CMD 200m chip (EDC-NHS); running buffer 50 mM Tris pH 7.4; serial injections of elution solutions (pH 4, pH 8.9, 0.25–4 M NaCl, 5 mM EDTA, 6 M urea, 7 M guanidinium chloride); Reichert SR7000DC

Chain of UniProt Q63366 (Q63366 22-271 N146D/N156D/N162D): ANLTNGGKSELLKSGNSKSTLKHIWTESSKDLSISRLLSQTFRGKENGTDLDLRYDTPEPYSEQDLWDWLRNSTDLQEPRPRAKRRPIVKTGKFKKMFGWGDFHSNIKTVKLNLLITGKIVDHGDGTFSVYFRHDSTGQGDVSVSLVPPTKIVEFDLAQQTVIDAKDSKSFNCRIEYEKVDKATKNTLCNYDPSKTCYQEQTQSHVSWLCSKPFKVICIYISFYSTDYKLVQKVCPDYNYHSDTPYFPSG

“C-terminally hemagglutinin (HA)-tagged LNS2 (domain or fragment)” showed a percent of the complex released after injection of 1 M NaCl of 9%.
